The text below walks through data of PMC4992421 (Nature immunology, 2016).

Among the targets are KIR3DS1-Fc (human, UniProt Q14943); KIR3DL1-Fc (human, UniProt P43629); KIR3DL2-Fc (human, UniProt P43630).
Holding throughout (test): SPR
On the technique in general: In SPR one partner is held on a chip, and binding of the other changes the refractive index at the surface.

KIR3DS1-Fc, sequence (Q14943 22-340): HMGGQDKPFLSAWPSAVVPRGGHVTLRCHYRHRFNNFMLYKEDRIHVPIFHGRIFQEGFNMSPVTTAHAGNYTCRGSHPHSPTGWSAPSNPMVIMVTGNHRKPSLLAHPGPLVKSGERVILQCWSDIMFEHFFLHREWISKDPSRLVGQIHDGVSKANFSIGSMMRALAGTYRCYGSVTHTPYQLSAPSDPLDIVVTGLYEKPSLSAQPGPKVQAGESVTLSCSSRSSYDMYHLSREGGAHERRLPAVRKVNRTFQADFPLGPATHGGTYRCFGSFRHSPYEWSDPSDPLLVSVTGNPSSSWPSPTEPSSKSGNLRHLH
KIR3DL2-Fc, sequence (P43630 22-340): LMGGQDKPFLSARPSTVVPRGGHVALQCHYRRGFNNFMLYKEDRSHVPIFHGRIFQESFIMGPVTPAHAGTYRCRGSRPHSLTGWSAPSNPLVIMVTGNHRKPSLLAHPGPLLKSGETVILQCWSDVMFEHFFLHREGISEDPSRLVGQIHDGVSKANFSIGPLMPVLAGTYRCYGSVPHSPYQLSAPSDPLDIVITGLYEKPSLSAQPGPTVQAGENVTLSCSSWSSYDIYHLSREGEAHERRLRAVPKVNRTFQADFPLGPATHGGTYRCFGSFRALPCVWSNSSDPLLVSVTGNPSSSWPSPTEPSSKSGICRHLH
KIR3DL1-Fc, sequence (P43629 22-340): as the sequence (Q14943 22-340) above, with V47I, G58S, M92V, R136K, W138G, S163P, R166L, L199P, L315P counted along it

B1: HLA-F open conformer (natural protein)
MHC heavy: GSHSLRYFSTAVSRPGRGEPRYIAVEYVDDTQFLRFDSDAAIPRMEPREPWVEQEGPQYWEWTTGYAKANAQTDRVALRNLLRRYNQSEAGSHTLQGMNGCDMGPDGRLLRGYHQHAYDGKDYISLNEDLRSWTAADTVAQITQRFYEAEEYAEEFRTYLEGECLELLRRYLENGKETLQRADPPKAHVAHHPISDHEATLRCWALGFYPAEITLTWQRDGEEQTQDTELVETRPAGDGTFQKWAAVVVPPGEEQRYTCHVQHEGLPQPLILRWEQSPQPTIPI
modifications: biotin (biotinylated monomer, site not stated)
As usually defined, the Kd is the concentration at which binding is half-saturated. Low values mean a tighter complex, high ones a looser complex. What is called koff is a measure of how fast the partners let go of each other. A higher koff goes with a short-lived complex. Broadly, the kon is the rate constant with which the complex forms. A higher kon goes with fast association. In the assay with KIR3DS1-Fc, B1 showed a Kd of 25 nM, an off-rate constant (koff) of 0.0007 s⁻¹ and a kon of 28400 M⁻¹ s⁻¹. Also, in the assay with KIR3DL1-Fc, the Kd was 157 nM, the koff is 0.00691 s⁻¹ and the kon came out at 44000 M⁻¹ s⁻¹. In addition, in the assay with KIR3DL2-Fc, the dissociation constant (Kd) was 118 nM, the koff was determined as 0.00508 s⁻¹ and the kon was found to be 43000 M⁻¹ s⁻¹.
